The nature of this data set: soluble on expression in E. coli; label from the status in PepcDB or PDB records.
For the sequence “MNLPAHTALFTPSWHAELELGYGRFYDCTRPTQRRHKGPLRVQKHLYAEGPEVCQHIIVHPPGGIAGGDRLDISVNVGAHAWAQLTSPGAAKWYRAASPAFQQLELHVQPGATLEWLPQETIVFSNAQAELTTRIELHGDARLCYWDVVALGRPASGERFEHGHFQSHLDIRRDGTLLWHERQRIIGADGLLDSPIGLDGKTVFATLLLTGDVDSDLLEVCRSLSMPSPVRGNLTQLPGLIVARCLADEALHARAWLIEIWKRLRPALLGREAVMPRIWNTLEHHHHHH”, the “soluble on expression in E. coli” value is recorded as “not soluble”.

In the case of “SLITVRIGGNEYPLDEVLEDPGRYARHLERAKTIQGFAECGCAEGRPRPKLVIRRHRDIFLLARWPEQAFRHAEGCPFHRKTQTTPGAADSLDAFRMRDGRHDIRLDASLSVSTHTPAKTVQRTPKGQFTKPQRRSAGLLALLEFAWEQAGLNVWPGTGARSWNGCWSQLTAELDDCRINGKDADGLLHVMQRWDPARKSEILAEFEAWQARLSPTAAGNPRGILIGEIESHAATQYGGKVVLRQSTQRFFMSSGLYERLQASFGTALAGIGRAEQRCVAVLLVEKSRSNYLTVVDIGAMLANRQFLPCDSSHEVAMADHLVALRRAFRKPLRHIGRAEVHPDFVLTDVQPETVIEVLGMAGNPAYDARTASKRQHYQTAGVPFLEWDAVATSISSVRVPPAGTRAADAR”, the “soluble on expression in E. coli” value was “soluble”. In the case of “MLKIIQGALDTRELLKAYQEEACAKNFGAFCVFVGIVRKEDNIQGLSFDIYEALLKTWFEKWHHKAKDLGVVLKMAHSLGDVLIGQSSFLCVSMGKNRKNALELYENFIEDFKHNAPIWKYDLIHNKRIYAKERSHPLKGSGLLALEHHHHHH” it was “soluble”; in that of “MGSDKIHHHHHHMLWRLKGVPFVGFDVARVRGLYTSLGDGWTYLNSHQIPQVPERVASGVAAAFRTHAQISEVTSQPIAVDQLEAAREAVASLAGVDPDCVVLGPTRQFLAHTLARGLGGFVRRKAGVVLSRADADWLTAPFRSLDGVFSWAEPDLGTGMLPDWQYEKLVDGSTRLVVLSAAHPLLGTVAPVGKIVDKVRARSRAWVLVDATTYAAYRPLRLDEWEADIVMLDLGELGGPQISALIFRDTSMFPRLDRTVPLELPASSLPHGLLGGVPNLVRHLGNLDENAPSVVEAMGEMAKFHKGLFEHLVESLEGLHAVHIVGISGDAAGQDAAFLDRVPRLTFTMEGVPADMVYRRLVDNRLITTVSPADPLLEAMGVTEAGGSITIGLSPFSTYYEVDQLTRVLASLA”, “not soluble”. In the case of “MGSDKIHHHHHHLEEILKLKASDTASLEARGEANKKYGIQDFDTWVKRILSRINCSSVLDVCCGTGNQLTYYIQMPCTTNILGVDISKDSLKIARQRCEYLLSTNKKLTLKCCKMEEMFDDKEIDRQYDLISCFYGLYYAEDVDVIVERMIDHLNHKGVFLIVGPYGKNNASLFEIIQKHCMIPELVIKSSTTFMQEDLILKLVTLPGISVDTETFVNPILYPSPQAVMDYWQASTFYVPQYHSTIQQELEKRFENHDVFVVEKHIMAIIASKL” it was “not soluble”; in that of “MGEAVEVMFGNGFPEIHKATSPTQTLHSNQQDCHWYEETIDDDLKWSFALNSVLHQGTSEYQDIALLDTKRFGKVLVIDGKMQSAERDEFIYHECLIHPALLFHPNSPKTVFIMGGGEGSAAREILKHTTIEKVVMCDIDQEVVDFCRRFLTVNSDAFCNKKLELVIKDAKAELEKREEKFDIIVGDLADPVEGGPCYQLYTKSFYQNILKPKLSPNGIFVTQAGPAGIFTHKEVFTSIYNTMKQVFKYVKAYTAHVPSFADTWGWVMASDHEFDVEVDEMDRRIEERVNGELMYLNAPSFVSAATLNKTISLALEKETEVYSEENARFIHGHGVAYRHI”, “soluble”. Consider “GSLRVKFSRSADAPAYQQGQNQLYNELNLGRREEYDVLDKRRGRD”, for which the “soluble on expression in E. coli” value was “soluble”. The value for “MEKFVLSLDEGTTSARAIIFDRESNIHGIGQYEFPQHYPRPGWVEHNPEEIWDAQLRAIKDAIQSARIEPNQIAAIGVTNQRETTLVWDKDGKPLYNAIVWQCRRTAEMVEEIKREYGTMIKEKTGLVPDAYFSASKLKWLLDNVPGLREKAEKGEVMFGTVDTFLIYRLTGEHVTDYSNASRTMLFNIKKLDWDDELLELFDIPESVLPEVRESSEVYGYTKKELLGAEIPVSGDAGDQQAALFGQAAFEAGMVKATYGTGSFILVNTDKMVLYSDNLLTTIAWGLNGRVSYALEGSIFVTGAAVQWLRDGIKIIKHASETEELATKLESNEGVYFVPAFVGLGAPYWDQFARGIIIGITRGTGREHLARATLEAIAYLTRDVVDEMEKLVQIKELRVDGGATANDFLMQFQADILNRKVIRPVVKETTALGAAYLAGLAVDYWADTREIAELWKAERIFEPKMDEKTRERLYKGWKEAVKRAMGWAKVVDSAKSN” was “soluble”. The value for “MGSDKIHHHHHHMPESAEAQVKEALLALLKDRDIQHITMKEIAEKAKVSRGSLYLYYEDKFSIIEDVIEDMKEGLGKALFDAFSHMDTLHLNKKRQTVHPTLSFVHEHRSFFSVMMNRGHFHRFFKDVFQQDVLLAPIHVNLTPIERDIYGHYRALYTYAIILYWLNEDAAASPEAISQKVWELVSQKRFYWLFGKAVPGEREKEKQIDRRVVRTREALQKAFLDVLAEKQDYAGITISDITRKSNIRRATFYDHYANKEELLQTMIQRSCAEIIDHLTIASSPNEFSLKEAEKALAILLSALSNMPIVHFLNREWGVPHVIPDMFKALESFYLHQQTDIHAEKKLYAHYVSAMIIGLLLYRLDEGKAHPPEVLAREFLQFLDVKKYKVVLL” was “not soluble”; that for “SNAKKVCVDTCVVIDGRITELIERGKLKDATIIIPEAVVSELEYQANMGREIGYKGIEELRKLIEKASEHNIKVEYYGERPTREEIFLAKSGEIDAMIRKVAKETNSILLTSDWIQYNLAKAQGIEAYFLEAAEEEVELVLD” was “soluble”.

Consider “MKEQKISPISVLDQSPMFVSGVMQRMYRNRAQAELCRQNQMTLEMASALAALEEFQPMSQQALADAVLTERSVAKRMVDNLEKRGFVCVSKSEANQRLKMLSLTKEGEATIKKVHQIMRNLQREFFSCLSEDESAEFFRLVRKMTLANNS”, for which the “soluble on expression in E. coli” value is given as “not soluble”. The value for “MAFERQGKIEKKISYSLFLNGPNVHFGSILFGAVDKSKYAEELCTHPMRQAYNTLDSNSRIIITVQSVAILDGKLVW” was “not soluble”; that for “MDGIAEPVIIKDDASRFVFINDAACDLLGKDRNQLIGRTDHDILPGEQADRIVSLDRIVLSTSEGHELEEQITTPDGTQRTLLTKKRCVSIPAGSTQEKFVVVTIVDIT” was “not soluble”.

With “AVQRAKEVLEEISCYPENNDAKELKRILTQPHFMALLQTHDVVAHEVYSD”, the “soluble on expression in E. coli” value is “soluble”. As for “SESQSEEIDCNDKDLFKAVDAALKKYNSQNQSNNQFVLYRITEATKTVGSDTFYSFKYEIKEGDCPVQSGKTWQDCEYKDAAKAATGECTATVGKRSSTKFSVATQTCQITPAEGPVVTAQYDCLGCVHPISTQSPDLEPILRHG”, the “soluble on expression in E. coli” value is listed as “soluble”. The value for “MEVDEDIELQKHQEQQSRKLQRFSEDNTGLMRNWNNPSSRIIRVSRASGGKDRHSKVLTSKGLRDRRIRLSVATAIQFYDLQDRLGFDQPSKAVEWLINAASDSITDLPLLNTNFDHLDQNQNQTKSACSSGTSESSLLSLSRTEIRGKARERARERTAKDRDKDLQNAHSSFTQLLTGGFDQQPSNRNWTGGSDCFNPVQLQIPNSSSQEPMNHPFSFVPDYNFGISSSSSAINGGYSSRGTLQSNSQSLFLNNNNNITQRSSISSSSSSSSPMDSQSISFFMATPPPLDHHNHQLPETFDGRLYLYYGEGNRSSDDKAKERR” was “not soluble”; that for “MGSDKIHHHHHHMNTYIKILLGTCCSFSILSCSNNLDETVYSKVTEQTYNYTVDDFTPSIASVYSYLRSQSDHWGYFCAQEVSADAIVMPPNASGWDDGGAYRRMHYQTWNSEQDHVKNIWSWFYQGALLCNKIIEQIKTGVIPTPSDTEKTQGLAELRAMRAYYYWQICDNFGDAPLVTTTAMDLPAKNTRREIFDFVENELIEVIPNLSEEVGGNYYGRMTKWAAKALLANLYLNAQVYINEARWNDCITQCDDIINSGKFTLAENYKDLFRALGVESCKEIIFTIPYDENFATGNSIFMFSWHGELKKKYNTIDTPWGCGSAMGVTQFIDTYNEKDSRLADTWLMGQQLAADGTPLYGTYDKMGEPLIYTKDIPSGNYTSELEGYRMNKFEVAENSYSSSNTDIPVFRYAEIMMMKAECLLRTGKSGAGTLVTQVRQRAFKDNPELATVTDSQLAGNTCYQYGYVEDYKIVDRGNTDPIQFGRMYDELGWEFAWEMHRRRDAIRFGIYTTKSWLSHKPEGDYRSVFPIPETVLTSNPNLEQNPNYL” was “not soluble”. In the case of “MGSDKIHHHHHHMSEIASTKARKRCAVYCRVSSDERLDQEFNSIDAQKEAGHAYVASQRSEGWISVADDYDDPGFSGGNTDRPGLKRLMADIERGQIDIVVVYKIDRLTRSLADFSKMVEVFERHEVSFVSVTQQFNTTTSMGRLMLNVLLSFAQFEREVTGERIRDKIAAAKRKGMWMGGVPPLGYDVDNRLLVINETEAAVVRRIFEEMLTIGSPTQIAVNLTADGITNKAWTTQEGQTRNGTRIDKKYLHNLLRNRIYLGELSHKGNWYPGAHLPIIDRELWDKVHAVLARDGHARSVETKIRSRTDALLRGLLYAPSGERMYPTYSRKNGRKYHYYVSKSESRFGAPGKSY” it was “not soluble”. In the case of “QPVACPDCGPTLRLVDASGAGLPGDPVDQTVELLTEGKIVAIKGLGGYHLAVDAANDAAVAELRRRKHRDEKPFAVMARDMEAVARFALVDSVEARLLTGPEHPIVLLRKRPSTILSGRVAPANGYIGTMLPYTPLHHLLLEERFAALVMTSGNLSDEPISYRDDEAVERLSAIADAFLVHDREIRTRIDDSVIRVFRGSPLFLRRSRGYVPREVRLPVEIP” it was “not soluble”; in that of “AIAALKDYALEKEKVKKFLQEFYQDDELGKKQFKYGNQLVRLAHREQVALYVDLDDVAEDDPELVDSICENARRYAKLFADAVQELLPQYKEREVVNKDVLDVYIEHRLMMEQRSRDPGMVRSPQNQYPAELMRRFELYFQGPSSSKPRVIREVRADSVGKLVTVRGIVTRVSEVKPKMVVATYTCDQCGAETYQPIQSPTFMPLIMCPSQECQTNRSGGRLYLQTRGSRFIKFQEMKMQEHSDQVPVGNIPRSITVLVEGENTRIAQPGDHVSVTGIFLPILRTGFRQVVQGLLSETYLEAHRIVKMNKSEDDESGAGELTREELRQIADVIFATVRELVSGGRSVRFSEAEQRCVSRGFTPAQFQAALDEYEELNVWQVNASRTRITFV”, “soluble”. Take “MGSDKIHHHHHHMSITPHRLPVAPVIVREAYLSLLRKGWRPGDRDLKTPRNVKIETGIIEKAEGSALVKLGKTQVIAGVKAGVGAPFKDTPNQGVLTVHAEFVPLASPVFEPGPPDENAIELARVVDRSLREVGAVDLESLVIRPGEKVWVLWVDLYIIDHDGNLFDASMLATMAVLLTARLPRYEESETGEIIISKEGEGEELKVKTRVVTVTTAKIDRYIVVDPNIEEEAVSDVRLVTAVDENGRIVGLQKTGMGSLTEADIETMIGYSLEASKVYFKALEEAIKP”: the “soluble on expression in E. coli” value is “not soluble”. Take “GHMGITRDVQVPDVRGQSSADAIATLQNRGFKIRTLQKPDSTIPPDHVIGTDPAANTSVSAGDEITVNVSTGPEQREIPDVSTLTYAEAVKKLTAAGFGRFKQANSPSTPELVGKVIGTNPPANQTSAITNVVIIIVGSGPATKDIPDVAGQTVDVAQKNLNVYGFTKFSQASVDSPRPAGEVTGTNPPAGTTVPVDSVIELQVSKGNQFVMPDLSGMFWVDAEPRLRALGWTGMLDKGADVDAGGSQHNRVVYQNPPAGTGVNRDGIITLRFGQ”: the “soluble on expression in E. coli” value is “soluble”.

The values above are taken from the DeepSol protein solubility set.
